According to the supplement of paper PMC9170038:

Test system: MS2 coat protein
Experiment: apparent KD of MS2 coat protein; designed switch direction (-1 OFF switch, 1 ON switch): -1; higher = weaker reporter binding
Summary of the method: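 Designed RNA switches sharing common flanks were transcribed on Illumina chips by stalled E. coli RNA polymerase. They were titrated with SNAP-549-labelled MS2 coat protein, from 0.7 or 1.5 nM doubling to 3 µM, in Tris-HCl pH 7.5 buffer with KCl, MgCl2, BSA, DTT, tRNA and Tween-20. Titrations ran without input, with 200 uM small-molecule ligand, or with an oligonucleotide input. The apparent KD of each design is the median over its clusters, after curve-fitting of normalised cluster fluorescence.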

[1] = input ligand: microRNA oligo, concentration not stated
[2] = Eterna round: R95, input ligand: microRNA oligo, concentration not stated
[3] = Eterna round: R95, input ligand: FMN 200 uM
[4] = Eterna round: R95, input ligand: none

Sequence | apparent KD of MS2 coat protein (input ligand: FMN 200 uM) [nM] | apparent KD of MS2 coat protein [1] [nM] | apparent KD of MS2 coat protein (input ligand: none) [nM] | apparent KD of MS2 coat protein [2] [nM] | apparent KD of MS2 coat protein [3] [nM] | apparent KD of MS2 coat protein [4] [nM]
CACCGUUACUGAGGAUAUCUUACAUGAGGAUCACCCAUGUAAUAAAUGAGAAUUUCGGAUGUAUUAGAGAAGGCAGAAAUCGGC [Ostricism 61 - Jieux - Exclusion NG 2] (Eterna round: R96, puzzle: Exclusion NG 2) | 22.6 | 16.3 | 23.9 |  |  | 
CACCUGAAAGGAGGAUAUCUUACAUGAGGAUCACCCAUGUAAUAAAUGAGAAUUUCGAAUGUAAUAGAGAAGGCCUGAAAAGGC [Ostracism 85 - Jieux - Exclusion NG 2] (Eterna round: R96, puzzle: Exclusion NG 2) | 30.6 | 25 | 34.4 |  |  | 
CACCUGAAGAGAGGAUAUCAUACAUGAGGAUCACCCAUGUAAUAAAUGAGAAUUUCGAAUGUAAUUGAGAAGGCUCAAUAAGGC [Ostricism 95 - Jieux - Exclusion NG 2] (Eterna round: R96, puzzle: Exclusion NG 2) | 82.9 | 33 | 47.9 |  |  | 
CACGCAUCAGGAUAUACAUGAGGAUCACCCAUGUGUUCCAGCUAGGAAACUAGCAAAUGUAGAAGGGAUGCGUG [Mat - Exclusion 3 - JL Mod - D7] (Eterna round: R97, puzzle: Exclusion 3) | 727 |  | 208 |  |  | 
CACUUGGCAGGAUAUGCAAUUUUAGACAUGAGGAUCACCCAUGUGAUCAUUCCAUAUUAUGCAGAAGGGCCUAAAC [JR_E5_Sub050] (puzzle: Exclusion 5) |  |  |  | 214 |  | 
CAGCUGUCAGGAUAUCGUGCAUACAACGAAAGUUCUAUGUGCGAGAAGGGACAUGAGGAUCACCCAUGUUAACG [Omei Ex4 A25] (Eterna round: R97, puzzle: Exclusion 4) | 58 |  | 46 |  |  | 
CAGGAAGCGGAGGAUAUGAUGAAAACUCGGCAAUCAGAAGGCCGCACAUGAGGAUCACCCAUGUCGCAAAUACC [Eternabot (Original) Solution 36] (Eterna round: R97, puzzle: Exclusion 6) | 16.6 |  | 15.3 |  |  | 
CAGGAUAGAGGAUAUACGUAGAUACAGAUUCAUGUAAUCCUACAUGAGGAUCACCCAUGUAGAAGGCUAUCCUG [Fiskers Ex 2 - 18] (puzzle: Exclusion 2) |  |  |  | 17.6 |  | 
CAGGGCGCAGGAUAUAUCACAAUGCACAUGAGGAUCACCCAUGUCAUCCUCGCGCUUGAGAUAGAAGGGUGAAACC [Eternabot (L1) Solution 65] (Eterna round: R97, puzzle: Exclusion 5) | 21.1 |  | 23.7 |  |  | 
CAGUACGGAGGAUAUACAUGAGGAUCACCCAUGUACGCGGGUGUCACUGGGAGAACUUGUAGAAGGCCGAGUCC [Eternabot (L1) Solution 8] (Eterna round: R97, puzzle: Exclusion 3) | 196 |  | 107 |  |  | 
CAGUACUGAGGAUAUACAUGAGGAUCACCCAUGUGAGAGAUACUAAUGAGGUCGAUUAGUAGAAGGCAGUACUG [Mat X3R4 m4] (Eterna round: R97, puzzle: Exclusion 3) | 240 |  | 17.5 |  |  | 
CAGUACUGAGGAUAUACAUGAGGAUCACCCAUGUGAUUUAGUGCACGCGUACGUGUACGUAGAAGGCAGUACUG [JL 3.27 m1] (Eterna round: R97, puzzle: Exclusion 3) | 182 |  | 20.8 |  |  | 
CAGUACUGAGGAUAUACAUGAGGAUCACCCAUGUGGAGAGGAAAAGGAAGAAAAGAAGGUAGAAGGCGGUGCUG [JR_Ex3_Sub042] (Eterna round: R97, puzzle: Exclusion 3) | 196 |  | 40.8 |  |  | 
CAGUACUGAGGAUAUACAUGAGGAUCACCCAUGUGUACCAGCUAGGAAACUAGCAAAAGUAGAAGGCAGUACUG [828 mod 2 m10] (Eterna round: R97, puzzle: Exclusion 3) | 32.6 |  | 14.9 |  |  | 
CAGUACUGAGGAUAUACAUGAGGAUCACCCAUGUGUGUGAGAAAAUUAAUAAAAGAAUGUAGAAGGCGGUGCUG [JR_Ex3_Sub041] (Eterna round: R97, puzzle: Exclusion 3) | 645 |  | 357 |  |  | 
CAGUACUGAGGAUAUACAUGAGGAUCACCCAUGUGUUCCAGCUAGGAAACUAGCAAUAGUAGAAGGCAGUACUG [salish99_ex3_r3_090x] (Eterna round: R96, puzzle: Exclusion 3) | 417 | 19.1 | 23.2 |  |  | 
CAGUACUGAGGAUAUACAUGAGGAUCACCCAUGUGUUCCAGCUAGGAAACUAGCAAUAGUAGAAGGCAGUACUG [salish99_ex3_r3_090x] (puzzle: Exclusion 3) |  |  |  | 21.3 |  | 

Sequence | apparent KD of MS2 coat protein (input ligand: FMN 200 uM) [nM] | apparent KD of MS2 coat protein [1] [nM] | apparent KD of MS2 coat protein (input ligand: none) [nM] | apparent KD of MS2 coat protein [2] [nM] | apparent KD of MS2 coat protein [3] [nM] | apparent KD of MS2 coat protein [4] [nM]
CAGUACUGAGGAUAUACAUGAGGAUCACCCAUGUGUUCCGGCUAGGAAACUAGCAAAAGUAGAAGGCAGUACUG [salish99_ex3_r3_079] (puzzle: Exclusion 3) |  |  |  | 30.8 | 368 | 28.5
CAGUACUGAGGAUAUACAUGAGGAUCACCCAUGUGUUCCGGCUAGGAAACUAGCAAAGGUAGAAGGCAGUACUG [Salish 065 m11] (Eterna round: R97, puzzle: Exclusion 3) | 823 |  | 43.7 |  |  | 
CAGUACUGAGGAUAUACAUGAGGAUCACCCAUGUUUUCCAGCUAGGAAACUAGCAAGUGUAGAAGGCAGUACUG [Salish 065 m6] (Eterna round: R97, puzzle: Exclusion 3) | 342 |  | 25.6 |  |  | 
CAUACUAAAGUCAGGAUAUGCGGUCGAAUACGGGCGUAGAAGGGACAUGAGGAUCACCCAUGUAGAUAGUAAAG [EX-4 Malc #19] (puzzle: Brourd's mod of Exclusion 4) |  |  |  | 13.6 | 15.3 | 15.7
CAUAUGGGAGGAUAUGCAUAGAUAAAGAAACAUGUUCAACCACAUGAGGAUCACCCAUGUAGAAGGCCCAUAUG [Mat - Same state - Mayanna Mod - D102] (Eterna round: R96, puzzle: Exclusion 2) | 266 | 22.7 | 32.8 |  |  | 
CAUCCACAUGAGGAUCACCCAUGUCAGGAUAUCGCGCGCGCGUUUUCGGUCUUUCGCGCGAGAAGGGACGACUG (puzzle: Exclusion 1) |  |  |  | 13.3 |  | 
CAUGAUCUUCGGAAAAUGUACAUGAGGAUCACCCAUGUGACGAGUUACAUGAAAAACAAGCUUUUUGCUCGUCUUAU [Sensor v3 - Turn-off variant 1 - 10] (puzzle: Sensor v3, turn-off variant 1) |  |  |  | 288 | 411 | 623
CAUGAUCUUCGGAUCAUGUACAUGAGGAUCACCCAUGUUACGAGUUGAUCCUCAUACAAGCUUUUUGCUCGUCUUAU [Sensor v3 - Turn-off variant 1 - 26] (puzzle: Sensor v3, turn-off variant 1) |  |  |  | 14.8 | 22.2 | 20.8
CAUGUGUUAGGAUAUGCACAGAUCUCCGAAAGGAGAUCUGUGCAGAAGGAACAUGAGGAUCACCCAUGUUGAUG [Mod of Brourd 16 - Jieux - Exclusion 4] (Eterna round: R97, puzzle: Exclusion 4) | 136 |  | 37.3 |  |  | 
CAUUAUUAUCGAGGAUAUCCUAUUGUAAUACUGGGAGAAGGCGGACUCAACAUGAGGAUCACCCAUGUAAGACGGGUACUAGAU [Ex NG1 #22] (Eterna round: R96, puzzle: Exclusion NG 1) | 228 | 139 | 163 |  |  | 
CAUUAUUAUCGAGGAUAUCCUAUUGUAAUUCUGGGAGAAGGCGGACUCAACAUGAGGAUCACCCAUGUAAGACGGGUACUAGAU [Ex NG1 #21] (Eterna round: R96, puzzle: Exclusion NG 1) | 69.5 | 61 | 92 |  |  | 
CAUUCCUAGCGAGGAUAUCAGUAAAAGGGAAGCUGAGAAGGCGCAAACAUGAGGAUCACCCAUGUCACACGCGGGUAGUUUUCC [Uslazaxe] (Eterna round: R96, puzzle: Exclusion NG 1) | 16.2 | 10.8 | 14.3 |  |  | 
CAUUGUUACGGAGGAUAUCGUAUUGAGAUACUAUGAGAAGGCCGAAUAAACAUGAGGAUCACCCAUGUGAGACGGAUGCUUGUG [Ex NG1 #35] (Eterna round: R96, puzzle: Exclusion NG 1) | 33.1 | 14.9 | 18.9 |  |  | 
CAUUUCAGUCGGAGAUCCAACAUGAGGAUCACCCAUGUCUCUAAAGCUUUUUGCUCGUCUUAUCCUCCUUUGUUCAC [JR_STOV1_Sub098] (Eterna round: R97, puzzle: Sensor, turn-off variant 1) | 458 |  | 299 |  |  | 
CCAACCAGAGGAUAUGCGCAUAGAUCAGACUUUGUUUCUUAACAUGAGGAUCACCCAUGUAGAAGGCUGUAACC [Ex2 #76] (Eterna round: R97, puzzle: Exclusion 2) | 21.6 |  | 20 |  |  | 
CCAAGAAUAGGAUAUACACCAUGUCAGCUUAUAUACAACGAACAUGAGGAUCACCCAUGUAGAAGGGUUCUCUC [Exclusion-2-#1] (Eterna round: R97, puzzle: Exclusion 2) | 430 |  | 479 |  |  | 
CCAAGCUUAUUCAUUAACAACAUGAGGAUCACCCAUGUAUAGGCAAUUAUGUCUGGGCUCUUUAGUGCUCGUCUUAU [Sensor-V1 #24] (Eterna round: R97, puzzle: Sensor, turn-off variant 1) | 18 |  | 19.8 |  |  | 
